B1: SH3BP2 peptide 408-423 (SH3 domain-binding protein 2), 16-mer library wild type / TNKS ANK (TNKS 12 ANK repeats, residues 174-649) (parent complex)
chain 1: PQLPHLQRSPPDGQSF
chain 2: TGVPAVSGALRELLEACRNGDVSRVKRLVDAANVNAKDMAGRKSSPLHFAAGFGRKDVVEHLLQMGANVHARDDGGLIPLHNACSFGHAEVVSLLLCQGADPNARDNWNYTPLHEAAIKGKIDVCIVLLQHGADPNIRNTDGKSALDLADPSAKAVLTGEYKKDELLEAARSGNEEKLMALLTPLNVNCHASDGRKSTPLHLAAGYNRVRIVQLLLQHGADVHAKDKGGLVPLHNACSYGHYEVTELLLKHGACVNAMDLWQFTPLHEAASKNRVEVCSLLLSHGADPTLVNCHGKSAVDMAPTPELRERLTYEFKGHSLLQAAREADLAKVKKTLALEIINFKQPQSHETALHCAVASLHPKRKQVTELLLRKGANVNEKNKDFMTPLHVAAERAHNDVMEVLHKHGAKMNALDTLGQTALHRAALAGHLQTCRLLLSYGSDPSIISLQGFTAAQMGNEAVQQILSESTPIRTSD

Variants of: B1
Assay: proteomic peptide phage display deep mutational scan (ProP-PD DMS): M13 P8 16-mer library selected against immobilised GST-tagged bait for four days (rounds), NGS of the eluted pools per day and pseudo-replica; bait immobilised on MaxiSorp plates (10 µg), library pre-cleared on GST, 2 h binding at 4 °C, five washes; one round per day, days 1-4; value from days 2 and 3

Point of comparison: chain 1 PDLPHLQRSPPDGQSF [chain 1 Q2D], screen value 0.00112 average fractional NGS count over selection days 2 and 3 (reads of this peptide / all reads for the bait, averaged over …. Against it:
- chain 1 PLLPHLQRSPPDGQSF [chain 1 Q2L] — higher, 0.00153 average fractional NGS count over selection days 2 and 3 (reads of this peptide / all reads for the bait, averaged over …
- chain 1 PELPHLQRSPPDGQSF [chain 1 Q2E] — lower, 0.000696 average fractional NGS count over selection days 2 and 3 (reads of this peptide / all reads for the bait, averaged over …
- chain 1 PTLPHLQRSPPDGQSF [chain 1 Q2T] — lower, 0.000819 average fractional NGS count over selection days 2 and 3 (reads of this peptide / all reads for the bait, averaged over …
- chain 1 PILPHLQRSPPDGQSF [chain 1 Q2I] — lower, 0.000434 average fractional NGS count over selection days 2 and 3 (reads of this peptide / all reads for the bait, averaged over …
- chain 1 PHLPHLQRSPPDGQSF [chain 1 Q2H] — lower, 0.000483 average fractional NGS count over selection days 2 and 3 (reads of this peptide / all reads for the bait, averaged over …
- chain 1 PYLPHLQRSPPDGQSF [chain 1 Q2Y] — lower, 0.000238 average fractional NGS count over selection days 2 and 3 (reads of this peptide / all reads for the bait, averaged over …
- chain 1 PVLPHLQRSPPDGQSF [chain 1 Q2V] — lower, 0.000821 average fractional NGS count over selection days 2 and 3 (reads of this peptide / all reads for the bait, averaged over …
- chain 1 PMLPHLQRSPPDGQSF [chain 1 Q2M] — lower, 0.000169 average fractional NGS count over selection days 2 and 3 (reads of this peptide / all reads for the bait, averaged over …
- chain 1 PQLPHLQRQPPDGQSF [chain 1 S9Q] — higher, 0.00451 average fractional NGS count over selection days 2 and 3 (reads of this peptide / all reads for the bait, averaged over …
- chain 1 PQLPHLQRMPPDGQSF [chain 1 S9M] — higher, 0.00474 average fractional NGS count over selection days 2 and 3 (reads of this peptide / all reads for the bait, averaged over …
- chain 1 PQLPHLQRWPPDGQSF [chain 1 S9W] — lower, 0.000206 average fractional NGS count over selection days 2 and 3 (reads of this peptide / all reads for the bait, averaged over …
- chain 1 PQLPHLQRYPPDGQSF [chain 1 S9Y] — lower, 0.000793 average fractional NGS count over selection days 2 and 3 (reads of this peptide / all reads for the bait, averaged over …
- chain 1 PQLPHLQRPPPDGQSF [chain 1 S9P] — lower, 0.000122 average fractional NGS count over selection days 2 and 3 (reads of this peptide / all reads for the bait, averaged over …
- chain 1 PQLPHLQRHPPDGQSF [chain 1 S9H] — higher, 0.00219 average fractional NGS count over selection days 2 and 3 (reads of this peptide / all reads for the bait, averaged over …
- chain 1 PQLPHLQRNPPDGQSF [chain 1 S9N] — lower, 0.000282 average fractional NGS count over selection days 2 and 3 (reads of this peptide / all reads for the bait, averaged over …
- chain 1 PQLPHLQRLPPDGQSF [chain 1 S9L] — higher, 0.00406 average fractional NGS count over selection days 2 and 3 (reads of this peptide / all reads for the bait, averaged over …
- chain 1 PQLPHLQRAPPDGQSF [chain 1 S9A] — lower, 0.000813 average fractional NGS count over selection days 2 and 3 (reads of this peptide / all reads for the bait, averaged over …
- chain 1 PQLPHLQRDPPDGQSF [chain 1 S9D] — lower, 0.00106 average fractional NGS count over selection days 2 and 3 (reads of this peptide / all reads for the bait, averaged over …
- chain 1 PQLPHLQRSAPDGQSF [chain 1 P10A] — lower, 0.000707 average fractional NGS count over selection days 2 and 3 (reads of this peptide / all reads for the bait, averaged over …
- chain 1 PQLPHLQRSHPDGQSF [chain 1 P10H] — higher, 0.0139 average fractional NGS count over selection days 2 and 3 (reads of this peptide / all reads for the bait, averaged over …
- chain 1 PQLPHLQRSKPDGQSF [chain 1 P10K] — lower, 0.00107 average fractional NGS count over selection days 2 and 3 (reads of this peptide / all reads for the bait, averaged over …
- chain 1 PQLPHLQRSGPDGQSF [chain 1 P10G] — higher, 0.00637 average fractional NGS count over selection days 2 and 3 (reads of this peptide / all reads for the bait, averaged over …
- chain 1 PQLPHLQRSLPDGQSF [chain 1 P10L] — lower, 0.00106 average fractional NGS count over selection days 2 and 3 (reads of this peptide / all reads for the bait, averaged over …
- chain 1 PQLPHLQRSVPDGQSF [chain 1 P10V] — higher, 0.00118 average fractional NGS count over selection days 2 and 3 (reads of this peptide / all reads for the bait, averaged over …
- chain 1 PQLPHLQRSFPDGQSF [chain 1 P10F] — lower, 0.000203 average fractional NGS count over selection days 2 and 3 (reads of this peptide / all reads for the bait, averaged over …
- chain 1 PQLPHLQRSPPDGQSE [chain 1 F16E] — lower, 0.000221 average fractional NGS count over selection days 2 and 3 (reads of this peptide / all reads for the bait, averaged over …
- chain 1 PQLPHLQRSPPDGQSR [chain 1 F16R] — higher, 0.00135 average fractional NGS count over selection days 2 and 3 (reads of this peptide / all reads for the bait, averaged over …
- chain 1 PQLPHLQRSPPDGQSM [chain 1 F16M] — higher, 0.00196 average fractional NGS count over selection days 2 and 3 (reads of this peptide / all reads for the bait, averaged over …
- chain 1 PQLPHLQRSPPDGQSD [chain 1 F16D] — lower, 0.000232 average fractional NGS count over selection days 2 and 3 (reads of this peptide / all reads for the bait, averaged over …
- chain 1 PQLPHLQRSPPDGQSH [chain 1 F16H] — higher, 0.00294 average fractional NGS count over selection days 2 and 3 (reads of this peptide / all reads for the bait, averaged over …
- chain 1 PQLPHLQRSPPDGQSA [chain 1 F16A] — higher, 0.00179 average fractional NGS count over selection days 2 and 3 (reads of this peptide / all reads for the bait, averaged over …
- chain 1 PQLPHLQRSPPDGQSQ [chain 1 F16Q] — lower, 0.000905 average fractional NGS count over selection days 2 and 3 (reads of this peptide / all reads for the bait, averaged over …
- chain 1 PQLPHLQRSPPAGQSF [chain 1 D12A] — lower, 0.000288 average fractional NGS count over selection days 2 and 3 (reads of this peptide / all reads for the bait, averaged over …
- chain 1 PQLPHLQRSPPMGQSF [chain 1 D12M] — lower, 0.000556 average fractional NGS count over selection days 2 and 3 (reads of this peptide / all reads for the bait, averaged over …
- chain 1 PQLPHLQRSPPSGQSF [chain 1 D12S] — lower, 0.000143 average fractional NGS count over selection days 2 and 3 (reads of this peptide / all reads for the bait, averaged over …
- chain 1 PQLPHLQRSPPLGQSF [chain 1 D12L] — lower, 0.000574 average fractional NGS count over selection days 2 and 3 (reads of this peptide / all reads for the bait, averaged over …
- chain 1 PQLPHLQRSPPVGQSF [chain 1 D12V] — lower, 0.000643 average fractional NGS count over selection days 2 and 3 (reads of this peptide / all reads for the bait, averaged over …
- chain 1 PQLPHLQRSPPDGQWF [chain 1 S15W] — lower, 0.000372 average fractional NGS count over selection days 2 and 3 (reads of this peptide / all reads for the bait, averaged over …
- chain 1 PQLPHLQRSPPDGQPF [chain 1 S15P] — lower, 0.000545 average fractional NGS count over selection days 2 and 3 (reads of this peptide / all reads for the bait, averaged over …
- chain 1 PQLPHLQRSPPDGQQF [chain 1 S15Q] — lower, 0.000297 average fractional NGS count over selection days 2 and 3 (reads of this peptide / all reads for the bait, averaged over …
- chain 1 PQLPHLQRSPPDGQDF [chain 1 S15D] — lower, 0.000182 average fractional NGS count over selection days 2 and 3 (reads of this peptide / all reads for the bait, averaged over …
- chain 1 PQLPHLQRSPPDGQYF [chain 1 S15Y] — lower, 0.000762 average fractional NGS count over selection days 2 and 3 (reads of this peptide / all reads for the bait, averaged over …
- chain 1 PQLPHLQRSPPDGQTF [chain 1 S15T] — lower, 0.000479 average fractional NGS count over selection days 2 and 3 (reads of this peptide / all reads for the bait, averaged over …
- chain 1 PQLPHLQRSPPDGQAF [chain 1 S15A] — higher, 0.00154 average fractional NGS count over selection days 2 and 3 (reads of this peptide / all reads for the bait, averaged over …
- chain 1 PQLPHLQRSPPDGQRF [chain 1 S15R] — lower, 0.000309 average fractional NGS count over selection days 2 and 3 (reads of this peptide / all reads for the bait, averaged over …
- chain 1 PQLPHLQRSPPDGQHF [chain 1 S15H] — lower, 0.000369 average fractional NGS count over selection days 2 and 3 (reads of this peptide / all reads for the bait, averaged over …
- chain 1 PQLPHLTRSPPDGQSF [chain 1 Q7T] — lower, 0.000465 average fractional NGS count over selection days 2 and 3 (reads of this peptide / all reads for the bait, averaged over …
- chain 1 PQLPHLKRSPPDGQSF [chain 1 Q7K] — lower, 0.000537 average fractional NGS count over selection days 2 and 3 (reads of this peptide / all reads for the bait, averaged over …
- chain 1 PQLPHLYRSPPDGQSF [chain 1 Q7Y] — higher, 0.00125 average fractional NGS count over selection days 2 and 3 (reads of this peptide / all reads for the bait, averaged over …
- chain 1 PQLPHLSRSPPDGQSF [chain 1 Q7S] — lower, 0.000276 average fractional NGS count over selection days 2 and 3 (reads of this peptide / all reads for the bait, averaged over …
- chain 1 PQLPHLLRSPPDGQSF [chain 1 Q7L] — higher, 0.00476 average fractional NGS count over selection days 2 and 3 (reads of this peptide / all reads for the bait, averaged over …
- chain 1 PQLPHLHRSPPDGQSF [chain 1 Q7H] — higher, 0.00147 average fractional NGS count over selection days 2 and 3 (reads of this peptide / all reads for the bait, averaged over …
- chain 1 PQLPHLVRSPPDGQSF [chain 1 Q7V] — higher, 0.00169 average fractional NGS count over selection days 2 and 3 (reads of this peptide / all reads for the bait, averaged over …
- chain 1 PQLPHLMRSPPDGQSF [chain 1 Q7M] — higher, 0.00158 average fractional NGS count over selection days 2 and 3 (reads of this peptide / all reads for the bait, averaged over …
- chain 1 PQLPHLFRSPPDGQSF [chain 1 Q7F] — higher, 0.00823 average fractional NGS count over selection days 2 and 3 (reads of this peptide / all reads for the bait, averaged over …
- chain 1 PQLPHLIRSPPDGQSF [chain 1 Q7I] — lower, 0.000144 average fractional NGS count over selection days 2 and 3 (reads of this peptide / all reads for the bait, averaged over …

— paper PMC12102759 (2025)
